# Laboratory results taken from PMC12232321.
# How the values were obtained:
# [1] = target: LOV2-C250A single domain of Phot1; test: crystal structure; LOV2-C250A crystallized in the dark (FMNox)
# [2] = target: LOV1-C57M-SL-LOV2-C250A fusion protein (short linker) (UniProt Q8LPD9); test: crystal structure; fusion protein pre-irradiated with blue light and reoxidised (FMN^·-Met/FMNox); 20% PEG 3350, 0.1 M BIS-TRIS pH 6.5, 0.1 M ammonium sulfate, 5 mg/mL
Substance,stoichiometry N [1],stoichiometry N [2]
LOV2-C250A single domain of Phot1 (domain or fragment),2,–
LOV1-C57M-SL-LOV2-C250A fusion protein (short linker) (from UniProt Q8LPD9 17-125),–,2
